From the supplement of paper PMC9170038

System: MS2 coat protein
Assay: apparent KD of MS2 coat protein; designed switch direction (-1 OFF switch, 1 ON switch): -1; higher = weaker reporter binding
Summary of the method: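 Designed RNA switches sharing common flanks were transcribed on Illumina chips by stalled E. coli RNA polymerase. They were titrated with SNAP-549-labelled MS2 coat protein, from 0.7 or 1.5 nM doubling to 3 µM, in Tris-HCl pH 7.5 buffer with KCl, MgCl2, BSA, DTT, tRNA and Tween-20. Titrations ran without input, with 200 uM small-molecule ligand, or with an oligonucleotide input. The apparent KD of each design is the median over its clusters, after curve-fitting of normalised cluster fluorescence.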

[1] = Eterna round: R95, input ligand: FMN 200 uM
[2] = Eterna round: R95, input ligand: microRNA oligo, concentration not stated
[3] = Eterna round: R95, input ligand: none
[4] = input ligand: microRNA oligo, concentration not stated

Sequence	apparent KD of MS2 coat protein (input ligand: FMN 200 uM)	apparent KD of MS2 coat protein (input ligand: none)	apparent KD of MS2 coat protein [1]	apparent KD of MS2 coat protein [2]	apparent KD of MS2 coat protein [3]	apparent KD of MS2 coat protein [4]
CAAUAGGGAGGAUAUCCAAUAUAUGACAUGAGGAUCACCCAUGUUUCCACUCGUACCUCCGGAGAAGGCCCAUAAG [Ex5 #6] (Eterna round: R97, puzzle: Exclusion 5)	21.3 nM	24.1 nM				
GUCCCACAUGAGGAUCACCCAUGUGAGGAUAUGGUUUCGCUGGCCGUAGCCAGUGGAACCAGAAGGCGCGUGAU [Mat - Exclusion 1 - JL Mod - D17] (Eterna round: R97, puzzle: Exclusion 1)	75 nM	74.7 nM				
AGAAAGCAAGGAUAUACGAGGAGAAGGUGGAAAGUUAAAGGACAUGAGGAUCACCCAUGUAGAAGGUGCGAGAA [JR_Exclu2_Sub043] (puzzle: Exclusion 2)			79.3 nM	46.2 nM	55.4 nM	
ACAUGAGGAUCACCCAUGUCCGGCUGGUCUGUUUCGGCUGUCGAGGAUAUAGUUCGGUGUUCGCGCUAGAAGGCGGGAGCUGGC [Aenatbe mod 59] (Eterna round: R96, puzzle: Exclusion NG 3)	111 nM	82.4 nM				56.5 nM
CUGGUCCGAGGAUAUAUUAUGUGAAACAUGAGGAUCACCCAUGUUAUAUGAUGGAUGUAAAUAGAAGGCGGACUAG [JL-ex5-3.14] (puzzle: Exclusion 5)			27.6 nM	36.3 nM	40.3 nM	
AAUUUACAUGAGGAUCACCCAUGUGAGGAUAUGAUACUAUGUACUUCGGUACAUAGUAUCAGAAGGCAUGUGGA [Ex1-3: 91] (puzzle: Exclusion 1)				115 nM		
GUCAUGUAAGGAUAUCUUACAUGUGACUUCGGUCACUGUCAAGAGAAGGUACAUGAGGAUCACCCAUGUUCGAC [Ex4-3: 52] (puzzle: Exclusion 4)				16.2 nM		
CGAGCUCAUGUGAGGAUAUACCUAUGGAUACAUAGGUAGAAGGCACAUGAGGAUCACCCAUGUCCUAGAGCUCG [jl-bmx4-4.58] (Eterna round: R97, puzzle: Brourd's mod of Exclusion 4)	821 nM	138 nM				
ACGUGAUAUCUGUCGGUGGACAUGAGGAUCACCCAUGUAAGCUUUCUGCUCGUCUUAUAACCCGGUGACAGACCUUC [Diteerquus] (puzzle: Sensor v3, turn-off variant 1)			45.3 nM	310 nM	56.9 nM	
GUACCAAAUGUAGGAUAUGGAUCCGAUUAGGAUCCAGAAGGACAUGAGGAUCACCCAUGUACAUGAGGAUCACCCAUUAGGUAC [Fiskers ExNg1 - 11] (Eterna round: R96, puzzle: Exclusion NG 1)	97.2 nM	34.2 nM				26.3 nM
UAAUGUAUAUAGGAUAUCUAGCUGGAAACAGCUAGAGAAGGAUGUACAUGAGGAUCACCCAUGUAAAUCAGUGA [Ex6/14-B1] (Eterna round: R97, puzzle: Exclusion 6)	239 nM	55.4 nM				
AGUACUAACACGAGAGUGUUAGUACAAUAAGCUUGUGAAACAUGAGGAUCACCCAUGUCCUCAUAAGCUCGUCUUAU [salish99_TOv2_r3_029] (Eterna round: R96, puzzle: Sensor v3, turn-off variant 2)	15.3 nM	18.1 nM				467 nM
CUUGUCCGAGGAUAUAUUUUGUGAUACAUGAGGAUCACCCAUGUUAUAAGAUGGAUAUAAAUAGAAGGCGGACGAG [Mat - Exclusion 5 - JL mod - D69] (puzzle: Exclusion 5)			35.7 nM	44 nM	47 nM	
UUCCUCUUAACAUGAGGAUCACCCAUGUAUUAUUUGGUAAUUGAGGAUAUAUUUUUAAUGUUUAUAUAGAAGGCAAAUACAGUU [JR_ExcNG3_Sub094] (Eterna round: R96, puzzle: Exclusion NG 3)						36.1 nM
GGACGGUAAGUGAGGAUAUGCUCUACCUCGGUAGAGCAGAAGGCACAUGAGGAUCACCCAUGUGAAAACUGUUC [Omei Ex4B B31] (Eterna round: R97, puzzle: Brourd's mod of Exclusion 4)	21.5 nM	15 nM				
AGUGGGCUAGGAUAUCGAUGAACUCACAUGAGGAUCACCCAUGUGUCUUCGGUGGGCUCACGAGAAGGAGUAAGUU [Teanislaa] (puzzle: Exclusion 5)				15.7 nM		
UUUUUAUAUGAAGGAUAUACUUAACAUGAGGAUCACCCAUGUGGUGUUGUGAGUGAGUGAGUUUAGUAGAAGGUCAAUUAUUUU [JMF's solution 6] (Eterna round: R96, puzzle: Exclusion NG 2)	915 nM	261 nM				246 nM
CUACUGAAGCUUUGCUUUAGUCGUACAUGAGGAUCACCCAUGUAGGAUAUGGUAGGCUUUGCUUACUAGAAGGAUAGAGUGAUC [salish99_ExNG3_r04_601] (Eterna round: R96, puzzle: Exclusion NG 3)	80.9 nM	58.1 nM				38.3 nM
CUGAGCAGACGGAGAUCCAACAUGAGGAUCACCCAUGUCUCAAAAGCUUUUUGCUCAUCUUAUCCUCCUCUGUUCUC [Edcesobi] (puzzle: Sensor v3, turn-off variant 1)			20.5 nM	336 nM	17.9 nM	
UUUAGUCGUGACAUGGGUGACAUGAGGAUCACCCAUGUCACAAGCUUGUUGCUCGUCUUAUAAUUAACCCAUGUCAC [LRO Sensor-off var1-15 mod of Stov1-13-A1 by Brourd] (Eterna round: R97, puzzle: Sensor, turn-off variant 1)	19.3 nM	19.6 nM				
ACAUGAGGAUCACCCAUGUUAUGUUGGGUACUAAAUUAUUCGUAGGAUAUCGAAGCUAGUUUGUGCGAGAAGGACGCAUUUUUU [JR_ExcNG3_Sub058] (Eterna round: R96, puzzle: Exclusion NG 3)	147 nM	201 nM				176 nM
AUAUAGAUAGUCAGGAUAUACUAGUGAUAACAGUAGUAGAAGGGACAUGAGGAUCACCCAUGUAGAUACUGCAC [Brourd's EX4 #2] (Eterna round: R97, puzzle: Brourd's mod of Exclusion 4)	22.2 nM	21.2 nM				
GAGAGAAUCUAGGAUAUAUCAAGAGAAGGAGAGAUAGAAGGAGGGACAUGAGGAUCACCCAUGUCUUCGUGUAG [Default title] (Eterna round: R97, puzzle: Exclusion 6)	15.6 nM	16 nM				
UACAUGAGGAUCACCCAUGUUUUGUCGUGUAUGGUAUUUAUCUAGGAUAUCAUUUUAUUGAGUUAUGAGAAGGAGAAUAUUAAU [JMF's solution 91] (Eterna round: R96, puzzle: Exclusion NG 3)	39.8 nM	32.3 nM				28.5 nM
AAGGGUGCCUUUAGAACGACAUGAGGAUCACCCAUGUAGACUGAGGAUAUCUACUCCUAAGGACCGGAGAAGGCAGUGUAAUGC [Ex NG3 #63] (Eterna round: R96, puzzle: Exclusion NG 3)	72.1 nM	58.9 nM				41.4 nM
CCUACUUACUAGGAUAUCAGAGUCGAAAGACUCUGAGAAGGAGUAACAUGAGGAUCACCCAUGUGUCCUAUAGG [Mod of Eli 11 - Jieux - Exclusion 6] (Eterna round: R97, puzzle: Exclusion 6)	52.2 nM	24.2 nM				
CGGAGCGUAGGUAGGUUCAACAUGAGGAUCACCCAUGUCUCACAAGCUUUUUGCUCAUCUUAUUGUACCUUGGUGCU [Sensor v3, turn-off variant 1 (MOD of JL )] (puzzle: Sensor v3, turn-off variant 1)			117 nM	37.3 nM	144 nM	
UCCAGUAUAUGGAGAUUUUACAUGAGGAUCACCCAUGUUGGGACAGCUUUUUGCUUGUCUUAUCCUACUUCGUGUGU [Design #4] (Eterna round: R97, puzzle: Sensor, turn-off variant 1)	51 nM	56.3 nM				
CCCAAAGGGACAAGCUUUUACAUGAGGAUCACCCAUGUUUUGGGAGCUCGUCUUAUGGGCCCGGGAAACCCGGGCCC [-38, -58.7 kcal, A 22%] (Eterna round: R97, puzzle: Sensor, turn-off variant 1)	17.1 nM	17.2 nM				
CAAAGUUGGUAAGGAUAUCCCACAUUAUUCUGACCCGUGCAAGCUACAUGAGGAUCACCCAUGUGGGAGAAGGUGCGUUAAAGA [Design 1] (Eterna round: R96, puzzle: Exclusion NG 2)	93.4 nM	94.3 nM				52 nM
